Measurements from US20220381787A1, “NOVEL LOX-1 ANTIBODY COMPOSITIONS, LOX1 NEUTRALIZATION ASSAY AND METHODS OF TREATMENT USING SAME” (The Wistar Institute of Anatomy and Biology, priority 2019, published 2022).
One block for each molecule: values may come before it.

Experiments:
[1] = biological target: T1, recombinant full length hLOX1 protein (Homo sapiens, UniProt P78380); assay: Western blot against native and denatured full-length recombinant hLOX1; format: binding; settings: for binding to denatured LOX-1: denatured condition; for binding to native LOX-1: native condition
T1 construct: The hLOX1 immunogen was cloned into pET30a Escherichia coli expression vector and produced; His tag; made in house; host or cells: Escherichia coli (pET30a)
Text: FIGS. 5A and 5B provide a series of gels showing the binding and specificity of anti-LOX-1 mAbs to target protein analyzed by Western blot analysis. In each figure, the first row of gels was loaded with denatured LOX-1, while the second row of gels was loaded with native LOX-1, as indicated in Example. The clone numbers of the anti-LOX-1 antibodies are listed below the gels.
Immunological reactivity of hLox-1 antibodies was characterized by Western blot analysis against native and denatured full-length recombinant proteins. Protein samples were electrophoretically separated under native or denaturing conditions on SDS-PAGE, performed using Novex gels with reagents as followed: 4-10% mini-gel, 10× Native-PAGE running buffer and 2× Native-PAGE: sample buffer. Denatured protein was heated in a heat block for 10 minutes at 57° C. Two micrograms (2 μg) of recombinant full length hLOX1 protein or non-specific POWV-Env viral protein was loaded to each well along with a protein size marker as a ladder. Gels were run at 150 V for 1 hour in a running buffer. Protein was transferred to a nitrocellulose membrane using the iBlot 2 Gel Transfer Device (Life Technologies). Membranes were blocked in Odyssey blocking buffer (Licor) for 1 hour at room temperature. Indicated hybridomas were diluted 1:250 in 0.5× Odyssey blocking buffer with 0.1% Tween-20 (BioRad) and incubated with the membranes overnight at 4° C. Membranes were washed and then incubated with the appropriate secondary antibody (goat anti-mouse IRDye680RD) for hybridoma samples for 1 hour at room temperature. After washing with PBST 5 times, membranes were imaged on the Odyssey infrared imager.

[2] = biological target: T2, recombinant human LOX-1 protein (Homo sapiens, UniProt P78380); assay: IgG avidity test, modified ELISA with 4M urea washes; format: binding; settings: for strength of binding to hLOX-1 recombinant protein: 4M urea washes, rank order 6A10=12D9>12E4>4D6; for avidity: 4M urea ELISA
T2 construct: The hLOX1 immunogen was cloned into pET30a Escherichia coli expression vector and produced; His tag; made in house; host or cells: Escherichia coli (pET30a)
Method: Anti-hLOX-1 mAbs samples were tested for anti-hLOX-1-specific binding to recombinant antigen using a modified ELISA and avidity determined by 4M urea washes against recombinant human LOX-1 protein.
Anti-LOX-1 mAbs samples were tested for anti-LOX-1-specific binding to recombinant antigen using a modified ELISA and avidity determined by 4M urea washes against recombinant human LOX-1 protein. […] Overall out of 16 clones identified, 6 were stronger binders, and 4 were high binders in rank order of strength of binding 6A 10=12D9>12E4>4D6.
Microtiter plates previously coated with recombinant Lox-1 antigens were washed 3 times with PBS plus 0.05% tween 20 (PBST). Hybridomas 1B6, 2A10, 3D8, 3E6, 4D6, 5C2, 5F5, 6A10, 8E7, 9E12, 10H11, 11A6, 12D9, 11C5, 12A10, 12E4, 14A12, and 12G6 samples were diluted as indicated and added (100 μl/well). The avidity of antibodies against hLOX-1 protein was determined by a particle disruption ELISA using 4M Urea. The binding of hLOX1 protein and incubation with mAbs were performed followed by a 5-minute incubation with urea after washing five times with 0.05% PBST. Control (urea-untreated) wells were treated with PBS during the 5-minute incubation. The anti-human IgG conjugated with horseradish peroxidase (HRP) was added with the dilution of 1/5000 in PBS for 1 hour. Afterwards, the plate is washed 5 times, and 100 μl of 3,3′5,5′-Tetramethylbenzidine (TMB) Substrate (Sigma-Aldrich, USA) is added to each well for 10 minutes before the reaction being stopped with 2M H2SO4 solution. The plate is read at 450 nm by Biotek ELISA plate reader.

[3] = biological target: T3, LOX-1 antigen present on the cell surface of 293T cells (Homo sapiens, UniProt P78380); assay: flow cytometry on hLOX-1 plasmid transfected 293T cells; format: cell-based; settings: 1 μg/ml antibody
T3 construct: expressed in transfected cells; host or cells: 293T cells
Method: (§1) FIG. 8A is a flow cytometric histogram showing fluorescent intensity of cells incubated with recombinantly expressed anti-LOX-1 (IgG1) on the plasmid hLOX-1 transfected cells. Anti-hLOX-1/DNA transfected cells were stained with 1 μg/ml of anti-Lox1 (IgG1) (6A10) antibody plus FITC-labelled goat anti-human IgG secondary antibody. […] FIG. 8B show flow cytometry analysis of PBMCs from whole blood. Flow cytometry analysis of anti-hLOX-1 binding to CD11c^+, CD14^+, CD19^+ and CD3^+ cells in PBMCs from healthy donors. Flow cytometric analyses of anti-CD3, CD4, CD14, CD19 and anti-Lox1 monoclonal antibodies were used to detect their lineage specificity.

[4] = system: CD11c+, CD14+, CD19+ and CD3+ cells in PBMCs; assay: flow cytometry of PBMCs from healthy donors; format: cell-based, human
Method: as §1

B1: 12E4: mouse monoclonal anti-human LOX-1 antibody, VH SEQ ID NO: 15, VL SEQ ID NO: 17 (antibody, V domains shown)
VH: MGWSWIFLFLLSGTAGVHSEVQLQQSGPELVKPGASMKISCKASGYSFTGYTMNWVKQSHGKNLEWIGLINPYNGGTSYNQKFKGKATLTVDKSSSTAYMELLSLTSEDSAVYYCARGGFYAMDYWGQGTSVTVSS
VL: MSSAQFLGLLLLCFQGTRCDIQMTQTTSSLSASLGDRVTISCSASQGISNYLNWYQQKPDGTVKLLIYYTSSLHSGVPSRFSGSGSGTDYSLTISNLEPEDIATYYCQQYSKLPYTFGGGTKLEIK
modifications: Amino acid sequence of variable region of the 12E4 heavy chain.; (1)..(19) signal; (20)..(49) FR1; (50)..(54) CDR1; (55)..(68) FR2; (69)..(85) CDR2; (86)..(117) FR3; (118)..(125) CDR3; (126)..(136) FR4; Amino acid sequence of variable region of the 12E4 light chain.; (20)..(42) FR1; (43)..(53) CDR1; (54)..(68) FR2; (69)..(75) CDR2; (76)..(107) FR3; (108)..(116) CDR3; (117)..(126) FR4
- binding to denatured LOX-1 [1]: not denatured LOX-1 (or binding to denatured LOX-1 at a significantly lower level)
- binding to native LOX-1 [1]: demonstrate binding to native LOX-1
- strength of binding to hLOX-1 recombinant protein [2]: high binders

B2: anti-Lox1 (IgG1) (6A10): recombinant antibody, clone 6A10 sequence in IgG1 framework, expressed in Expi293F cells (antibody, V domains shown)
VH: EVQLQQSGPELVKPGASVKISCKASGYSFTGYYMHWVKQSHVKSLEWIGRINPYNGATSYNQNFKDKASLTVDKSSSTAYMELHSLTSEDSAVYYCAPDVAYWGQGTLVTVSA
VL: DIKMTQSPSSMYASLGERVTITCKASQDINSYLSWFQQKPGKSPKTLIYRANRLVDGVPSRFSGSGSGQDYSLTISSLEYEDMGIYYCLQYDEFPPWTFGGGTKLEIK
- binding to non-transfected cells [3]: no binding above background to non-transfected cells
- binding to hLOX-1 transfected cells ([3]; FITC-labelled goat anti-human IgG secondary): Specific binding to cells transfected with LOX-1 antigen
- binding to CD3+ cells in PBMCs [4]: not to CD3^+ cells
- binding to immune subset cells in PBMCs ([4]; CD11c+, CD14+, CD19+ cells): binds to immune subset cells

B5: 12D9: mouse monoclonal anti-human LOX-1 antibody, VH SEQ ID NO: 11, VL SEQ ID NO: 13 (antibody, V domains shown)
VH: MAWVWTLLFLMAAAQSAQAQIQLVQSGPELKKPGETVKISCKASGYTFTNYGMNWVKQTPGKGLKWMGWINTYTGEPTYTDDFKGRFAFSLETSASTASLQIINLKNEDTATYFCARGGDFYAMDYWGQGTSVTVSS
VL: MESQTLVFISILLWLYGADGNIVMTQSPKSMSMSVGERVTLSCKASENVGTYVSWYQQKPEQSPKLVIFGASNRNTGVPDRFTGSGFATDFTLTISSVQAEDLGDYHCGQSSNYPYTFGGGTKLEIK
modifications: Amino acid sequence of variable region of the 12D9 heavy chain.; (1)..(19) signal; (20)..(49) FR1; (50)..(54) CDR1; (55)..(68) FR2; (86)..(117) FR3; (118)..(126) CDR3; (127)..(137) FR4; Amino acid sequence of variable region of the 12D9 light chain.; (1)..(20) signal; (21)..(43) FR1; (44)..(54) CDR1; (55)..(69) FR2; (70)..(76) CDR2; (77)..(108) FR3; (109)..(117) CDR3; (118)..(127) FR4
- binding to denatured LOX-1 [1]: not denatured LOX-1 (or binding to denatured LOX-1 at a significantly lower level)
- binding to native LOX-1 [1]: demonstrate binding to native LOX-1
- avidity [2]: strong avidity
- strength of binding to hLOX-1 recombinant protein [2]: high binders

The next lines start with results.

- binding to native LOX-1 [1]: demonstrate binding to native LOX-1
B3: 3D8: mouse monoclonal anti-human LOX-1 antibody, VH SEQ ID NO: 25, VL SEQ ID NO: 27 (antibody, V domains shown)
VH: MEWSWIFLFLLSGTAGVHSEVQLQQSGPELVKPGASVKMSCKASGYTFTSYVMHWVKQKPGQGLEWIGYINPYNDGTKYNEKFKGKATLTSDKSSSTAYMELSSLTSEDSAVYYCARGVYDGYPDYWGQGTTLTVSS
VL: MVSTSQLLGLLLFWTSASRCDIVMTQSPATLSVTPGDRVSLSCRASQSISDYLHWYQQKSHESPRLLIKYASQSISGIPSRFSGSGSGSDFTLSINSVEPEDVGVYYCQNGHSFPYTFGGGTKLEIK
modifications: Amino acid sequence of variable region of the 3D8 heavy chain.; (1)..(19) Signal; (20)..(49) FR1; (50)..(54) C DR1; (55)..(68) FR2; (69)..(85) CDR2; (86)..(117) FR3; (118)..(126) CDR3; (127)..(137) FR4; Amino acid sequence of variable region of the 3D8 light chain.; (1)..(20) signal; (21)..(43) FR1; (44)..(54) CDR1; (55)..(69) FR2; (70)..(76) CDR2; (77)..(108) FR3; (109)..(117) CDR3; (118)..(127) FR4
- binding to denatured LOX-1 [1]: not denatured LOX-1 (or binding to denatured LOX-1 at a significantly lower level)

- binding to native LOX-1 [1]: demonstrate binding to native LOX-1
- avidity [2]: strong avidity
- strength of binding to hLOX-1 recombinant protein [2]: high binders
B4: 6A10: mouse monoclonal anti-human LOX-1 antibody, VH SEQ ID NO: 3, VL SEQ ID NO: 5 (antibody, V domains shown)
VH: MGWSWIFLFLLSGTAGVLSEVQLQQSGPELVKPGASVKISCKASGYSFTGYYMHWVKQSHVKSLEWIGRINPYNGATSYNQNFKDKASLTVDKSSSTAYMELHSLTSEDSAVYYCAPDVAYWGQGTLVTVSA
VL: MRTPAQFLGILLLWFPGIKCDIKMTQSPSSMYASLGERVTITCKASQDINSYLSWFQQKPGKSPKTLIYRANRLVDGVPSRFSGSGSGQDYSLTISSLEYEDMGIYYCLQYDEFPPWTFGGGTKLEIK
modifications: Amino acid sequence of variable region of the 6A10 heavy chain.; SIGNAL (1)..(19) signal seqeunce; (20)..(49) FR1; (50)..(54) CDR1; (55)..(68) FR2; (69)..(85) CDR2; (86)..(117) FR3; (118)..(121) CDR3; (122)..(132) FR4; Amino acid sequence of variable region of the 6A10 light chain.; SIGNAL (1)..(20) signal seqeunce; (21)..(43) FR1; (44)..(54) CDR1; (55)..(69) FR2; (70)..(76) CDR2; (77)..(108) FR3; (109)..(118) CDR3; (119)..(128) FR4
- binding to denatured LOX-1 [1]: not denatured LOX-1 (or binding to denatured LOX-1 at a significantly lower level)
